B1: HAMLET (protein, UniProt P00709 20-142, looked up)
Alpha-lactalbumin: KQFTKCELSQLLKDIDGYGGIALPELICTMFHTSGYDTQAIVENNESTEYGLFQISNKLWCKSSQVPQSRNICDISCDKFLDDDITDDIMCAKKILDIKGIDYWLAHKALCTEKLEQWLCEKL
modifications: oleic acid complex

Key:
[1] = tested on: p38, HSP27, ERK1/2 in kidney and lung carcinoma cells; experiment: MAPK phosphorylation (phospho-MAPK antibody arrays, Western blot); assay type: cell-based, human; details: for effect of ion channel inhibitor on suppression of p-ERK1/2 phosphorylation by HAMLET / effect of ion channel inhibitor on HAMLET-induced p38 phosphorylation: lung carcinoma cells; for effect of ion channel inhibitor on HAMLET-induced p38 phosphorylation: 30 minutes pretreatment, HAMLET 21 and 35 μM, 1 hour; for phosphorylation of p38: Western blot
Text: (§1) Equal volumes of lysates were separated by SDS-PAGE on 4-12% Bis-Tris gels (Invitrogen) and blotted onto PVDF membranes. For other Western blots, 200,000 cells were allowed to adhere overnight in a 6-well plate. After HAMLET treatment the cells were washed with PBS and lysed in M-PER lysis buffer (Pierce) containing Complete protease inhibitor cocktail and PhosSTOP phosphatase inhibitor cocktail (both from Roche). The detached cells were collected by centrifugation. The lysates were cleared by centrifugation and protein concentrations were measured using the DC Protein Assay (Bio-Rad Laboratories, Hercules, Calif.). Equal amounts of protein were separated by SDS-PAGE on 4-12% Bis-Tris gels (Invitrogen) and blotted onto PVDF membranes (GE Healthcare). Membranes were saturated with BSA (GAPDH) or nonfat dry milk (phospho-p38, p38, phospho-ERK1/2, ERK1/2) and incubated with anti-p38, anti-phospho-p38, anti-ERK1/2, anti-phospho-(Thr202/Tyr204)-p44/42 (all 1:500-1000, Cell Signaling Technology), anti-ATF6 (1:1000, IMG-273, Imgenex), anti-phospho-eIF2α (Ser51), (1:500, Cell Signaling Technology) or anti-GAPDH (1:3000-5000, Novus Biologicals) antibodies followed by horseradish peroxidase-conjugated anti-rabbit (1:1000, DakoCytomation, Glostrup, Denmark) or anti-mouse (1:40000-50000, Novus Biologicals) antibodies for staining. Bound antibodies were detected with ECL Plus Western Blotting Reagent (GE Healthcare, Little Chalfont, UK) and GelDoc equipment (Bio-Rad Laboratories, Hercules, Calif.). If required, membranes were stripped with Restore Western Blot Stripping Buffer (Pierce, Rockford, Ill.), blocked and reprobed with new antibodies. MAP kinase phosphorylation was analyzed on a Human Phospho-MAPK array (Proteome Profiler Array, R&D Systems) as per the manufacturer's instruction. Band and spot intensities were quantified using ImageJ (Abramoff et al., July 2004, Biophotonics International). Cytokine quantification (IL6, IL8, TNFα) was performed on an […] 1000 immunoassay system (Siemens Diagnostics).
P38 MAPKs are activated by dual phosphorylation on conserved threonine and tyrosine residues by MKK3/6 and when phosphorylated, a wide variety of effector proteins, including MAPKAPK2 kinases, HSP27 chaperones and ATF2 and CHOP transcription factors become active (Cuenda et al., 2007, Biochimica et Biophysica Acta 1773: 1358-1375).

[2] = tested on: eIF2α, ATF6, XBP1, CHOP in A549 tumor cells; experiment: ER stress response (Western blot, XBP1 splicing PCR, RT-PCR); assay type: cell-based, human; details: for effect of ion channel inhibitor on HAMLET-induced eIF2α phosphorylation (ER stress): lung carcinoma cells, 30 minutes pretreatment, HAMLET 21 and 35 μM, 1 hour; for XBP1 splicing: PCR
Method: RNA was prepared with the RNeasy Mini Kit (QIAGEN, Hilden, Germany) and treated with DNAse I (QIAGEN). cDNA was synthesized using the Superscript III first strand RT-PCR system (Invitrogen). PCR of spliced and un-spliced XBP1 was as described (Yoshida et al., 2001, Cell 107: 881-891). Real-time PCR was performed on a Rotorgene 2000 instrument (Corbett Life Science, Sydney, Australia) using TaqMan Gene Expression Assays (Applied BioSystems) CHOP/DDIT3 (Hs01090850), IL6 (Hs00985639), IL8 (Hs00174103) and TNFα (Hs00174128). GAPDH (Hs99999905_m1) was used for normalization.
as §1
Disturbances in ER Ca^2+ regulation can impair protein folding in the ER by inactivation of Ca^2+ dependent chaperones, such as GRP78 and calreticulin. An increase in unfolded proteins may activate a conserved series of signal-transduction events. Spanning the ER membrane, three ER stress sensors PERK, ATF6 and IRE1 are activated by an overload of unfolded proteins. Upon PERK activation, eIF2α is phosphorylated, shutting down protein translation to avoid unfolded protein overload. To examine if HAMLET disturbs the ER and triggers an unfolded protein response, we analyzed the transcription of ER stress-induced genes.

[3] = tested on: lung carcinoma cells (A549); experiment: intracellular Ca^2+, Fluo-4, real time confocal microscopy; assay type: cell-based, human; details: for effect of channel blocker on first, EGTA insensitive Ca^2+ peak in response to HAMLET: 30 minutes pretreatment
Method: To examine if HAMLET modulates ion channel activity in tumor cells, we first quantified changes in intracellular Ca^2+ and K^+. Lung carcinoma cells were first preloaded with the Fluo-4 Ca^2+ fluorophore Fluo-, exposed to HAMLET (35 μM) and examined by real time confocal microscopy for changes in fluorescence intensity (FIG. 1A). The Ca^2+ ionophore A23187, which acts as a Ca^2+ shuttle across cell membranes, was used as a positive control (Abbott et al., 1979, Antimicrobial Agents and Chemotherapy 16, 808-812).
To distinguish Ca^2+ mobilization from intracellular stores from the influx of extracellular Ca^2+, EGTA was then added to the cell medium. […] K^+ fluxes across tumor cell membranes were subsequently quantified under the same experimental conditions, using the fluorophore FLUXOR™, which fluoresces after thallium has entered cells through K^+ channels.
To further characterize ion channel activation by HAMLET, carcinoma cells were pretreated with defined channel blockers. Amiloride is a sodium channel inhibitor with effects on mechanosensitive channels, barium chloride (BaCl2) is a general K^+ channel inhibitor, gadolinium chloride (GdCl3) inhibits mechanosensitive channels, Ruthenium red is a general Ca^2+ inhibitor and tetrandrine inhibits large conductance, Ca^2+ activated K^+ channels. The carcinoma cells were preincubated with Fluo-4 as described above, pretreated with each of the channel inhibitors for 30 minutes, exposed to HAMLET (35 μM) and examined by real time confocal imaging. Furthermore, cells treated with EGTA were compared to cells with intact extracellular Ca^2+ levels, to distinguish the early peak from the subsequent influx of Ca^2+ (FIG. 1B, Table in FIG. 8).

Jurkat cells = experiment: sodium influx, CoroNa Green Sodium indicator; assay type: cell-based; details: 10-minute measurement period
Method: Sodium influx in Jurkat cells was measured by using CoroNa Green Sodium indicator. The fluorescence was quantified every 20-second interval for a 10-minute total measurement period.

| Molecule | effect of ion channel inhibitor on suppression of p-ERK1/2 phosphorylation by HAMLET [1] | effect of ion channel inhibitor on HAMLET-induced p38 phosphorylation [1] | effect of ion channel inhibitor on HAMLET-induced eIF2α phosphorylation (ER stress) [2] | effect of channel blocker on first, EGTA insensitive Ca^2+ peak in response to HAMLET ([3]; HAMLET 35 μM) | sodium influx (fluorescence signal) (Jurkat cells) | phosphorylation of p38 [1] | XBP1 splicing [2] | ERK1/2 phosphorylation ([1]; 30 minutes) | p38α and HSP27 phosphorylation ([1]; 30 minutes, phospho-MAPK antibody arrays) | increase of CHOP mRNA ([2]; 3 hours) [fold] | eIF2α phosphorylation ([2]; A549 tumor cells) | ATF6 (Western blotting) ([2]; three hours of HAMLET treatment) | cells involved in Ca^2+ response [3] | increase in intracellular Ca^2+ levels relative to ionophore ([3]; HAMLET 35 μM) | intracellular Ca^2+ response ([3]; HAMLET 35 μM) | second Ca^2+ peak ([3]; HAMLET 35 μM) | start of increase in intracellular Ca^2+ ([3]; HAMLET 35 μM) |
| --- | --- | --- | --- | --- | --- | --- | --- | --- | --- | --- | --- | --- | --- | --- | --- | --- | --- |
| [Ba+2].[Cl-].[Cl-] [BaCl2, barium chloride] | reversed | inhibited | reduced eIF2α phosphorylation | inhibited | – | – | – | – | – | – | – | – | – | – | – | – | – |
| NC(N)=NC(=O)c1nc(Cl)c(N)nc1N [amiloride, 3,5-diamino-6-chloro-N-(diaminomethylene)pyrazine-2-carboxamide] | reversed | inhibited | reduced eIF2α phosphorylation | inhibited | – | – | – | – | – | – | – | – | – | – | – | – | – |
| CCCCCCCC/C=C\CCCCCCCC(=O)[O-].[Na+] [oleate, sodium oleate] | – | – | – | – | did not trigger a sodium flux | phosphorylation of p38 | caused splicing of XBP1 | – | – | – | – | – | – | – | – | – | – |
| B1 | – | – | – | – | immediate increase of fluorescence signal | dose- and time-dependent | detected | loss of ERK1/2 phosphorylation | phosphorylating p38α and HSP27 | 30 | time- (30 minutes) and dose-dependent | increase in cleaved as well as full-length ATF6 | about 50% | 31 % of the ionophore | rapid, step-wise increase in intracellular Ca^2+ | about 100 seconds | about 30 seconds |

Reference: patent US9487561B2, “Biologically active complex and its preparation” (HAMLET PHARMA AB, priority 2010, dated 2016)
